Test results from a protein production outcome set (Wang et al. 2014).

Experiment: label from the status in PepcDB records

Sequence	protein production
MAKAFEEQRRSPDLEALPFEDRIGLLVDREAAERDTRRLTTRLKIAALRQTACVEDVDLRTPRGIDRAVFAKLVEGRWIDRHENLLVTGATGLGKSWLACALGHKACRDNRSVLYHRVPRLFEALALARGDGRYARLLKSLGRAQLLILDDWGLSVLTAAERRDLLEILEDRHGRASTIVTSQLPWTPGMEPLGTPRSPTPFSIASSTTPTASSSPEKACENAAPKPSPLTANQNTDSISHRPLEHHHHHH	failed
MAKAISAPITFAIILVIGILLLIPFLTYVTYLSQSNQISQAQFNNYIYLKNLEQQRAVSGRPGVYYNGSSLFILYSNGTFVPNASIVVVGILYLNNLGVWQNITSLKYPIILNRTGSVNLPSNVAGKPIILVTSLGNIFFLQPGSSIGPYSNSIGKGGVTIISQIYTSSQIYSTSINITTNINGKFSNYTTPITFPNQTGTFQVKAREYIYYINSKTGKVITGVFSNWQILGSATVNSTTTQGITVTLQGKPVILIANYSQLVQSVNLSIKTNANFSIVVNINGVNYTVNNHALSATVPAGYVNFTVYTLQGNDTSSMSSGIIKHYKFNTINYTGNTYVTNSQLLFLPPNSLPYVQINYVNDYNYYKVFLYDYYDSPPPPGGGLVVILNGTEYNYNNTYGYWIIGGNYSFVPTGIFNGSMSYEAKEVTIAGNNGILNYYFPDIPSYIIINQPMTITVYYDYVIKWVPI	failed
MAKASSPTDTGKQKVRSAEVGTDILKALAELSPSTSLSRLAEHVQMPASKVHRYLQALIASGFAEQDAATNHYGLGREALRVGLAALGSIDVLKVAAMPLSQLRDELNESCFIAVWGNQGATVVSIEPAVRAVTVVTQIGSVLPLLSSSTGLVFAAYLPERETQELRDRELAALQQTASDYHTLLAGIREKGLHHVHGLLMPGVDALSAPVFNAMGQIAAVMTVVGPTSIFHADEHGPAAQSLLTAARTVSWRMGYAGNPHCASTSSVSSSTSQSSS	failed
MAKAVRIGAEGYKLKLDGAVQEIDGRSVVLVDVDSITPLMFGGSMKEKAKLLDAKFLRKYYEENKDFFFLSTREEKKMFVTLQLAREYAELVDDQFLRGFFEKALESAQKAF	not failed
MAKHAILVIDMLNDFVGEKAPLRCPGGETIIPDLQKIFEWVRGREGDDIHLVHIQEAHRKNDADFRVRPLHAVKGTWGSDFIPELYPQEDEYIVQKRRHSGFAHTDLDLYLKEEGIDTVVLTGVWTNVCVRSTATDALANAYKVITLSDGTASKTEEMHEYGLNDLSIFTKVMTVDQYIQAWENDEDPWVGGGDAQNKVK	not failed
MAKHVIIGAGSIGTNVARLLAEGGESVRIVTRSGSGPEHPLVDRVAADASDPSRLTELSRGAGVIYHCANPPSYTVWERLLPPLQTAAITAAKANDAVLALTGSLYAYGPQPGGRMNEHTPMAATGHKGRLRRRMWEQALAGGIRTVEVRGSDYIGKDANGIYSLLIKSALQKGKAAWITGHLDMPHTFTFNGDMAQALITLASEERAWGRPWHVPSAPAVTIRELARRYAVAAGRPPIKLIQIPRSVTRTAGLIVPIAREMAEMDYQWYAPFHMDATETTETFGLTATDLDTAVRNEVG	failed
MAKILEGPAMKLFNKWGIPVPNYVVIMDPKRLAQLGEANKWLRESKLVVKAHEAIGGRFKLGLVKIGLNLDEAIQASREMLGAKVGTAEVRQVIVAEMLDHDAEFYVSIIGNRDGAELLISKYGGVDIEDNWDSVRRIQIPLDEHPTIEQLTALAKEAGFEGEIAERVGKICSRLVLCFDNEDAQSIEINPLVIRKSDMRFAALDAVMNVDWDARFRHADWDFKPVSEIGRPFTEAEQQIMDIDSRIKGSVKFVEVPGGEIALLTAGGGASVFYADAVVARGGTIANYAEYSGDPPDWAVEALTETICRLPNIKHIIVGGAIANFTDVKATFSGIINGLRESKSKGYLEGVKIWVRRGGPNEAQGLAAIRKLQEEGFDIHVYDRSMPMTDIVDLALKS	not failed
MAKKRGKPEIDWTDDDKEIIWVSKSEIKRDSEHLKKLGAELIELTPQNLEKIPLDEDLKYAIRQAQSFKLEARRRQIQFIGKLLRNRDSAPIQDALDKVKNRHNQQQALLHKLELIRDQLINMGDASLNQLLSEYPQLDRQHLRNLIRMAQKEKQINKPAKNYHEILQYLKSELIV	not failed
MAKKRITLPQNFDELITAGDVEALKAVYDKCELTAHNGRYSLNTALHYGGVPDELVIWLVEQGLDVNTLDYYGRTPLYKHATLGRDTVKLLYELGGDIQKPDTYGSTPLHTAAGFFRPKIVSFLIEKDADVNAKNDMGRTPLAEALATCRNSNVVQAAEIAEMLIKAGAEVVPEMAERVEIIGKDFEFHRENFNKDSLAETEAGLEKLYALFDVKPAPKRKIHDGVSPIIVKTGSWKEQYDELWEMLIPSSGAAKTVQGEVIRITGRVQDELYRNGGVNWDKDYRNMLNSLPNHFASGTPLSEEELKETKELISNIRANGEDEEVITERLRELSVLWVLLNPTPILLGKTNYNR	failed
MAKLRHSRFQARKWSTLMLVLFMLFMLTIVLLMLLAFGVFSLPINNDESSPIDLSYFRRAATERSEGLGKRGDQWTEVLSWEPRAFVYHNFLSKEECEYLISLAKPHMVKSTVVDSETGKSKDSRVRTSSGTFLRRGRDKIIKTIEKRIADYTFIPADHGEGLQVLHYEAGQKYEPHYDYFVDEFNTKNGGQRMATMLMYLSDVEEGGETVFPAANMNFSSVPWYNELSECGKKGLSVKPRMGDALLFWSMRPDATLDPTSLHGGCPVIRGNKWSSTKWMHVGEYKI	failed
MAKLSRKERHRLLLQKIKENPFITDEELAEEFGCSVQTIRLDRAILDIKEVRERIKEMAKESLGKLKTISPRDVVGEIIDIELGSYAIATFEPELWMTFSNSQMVKGQHIYAFAESIAMSVIDAKAALIGIANIKYKTPVFANDRLVARAELKKKRNNKYIVWVFIKRNNEEVFRGKFILVAIDDENKETGQTGV	failed
MAKNKLLRMDNVSIVVESLDNAISFFEEIGLNLEGRANVEGEWAGRVTGLGSQCVEIAMMVTPDGHSRIELSRFLTPPTIADHRTAPVNALGYLRVMFTVEDIDEMVSRLTKHGAELVGEVVQYENSYRLCYIRGVEGILIGLAEELGNK	not failed
MAKNQSGSIFNTKVTIKYDKEKIIKLSSEMFSEDLCIQCGRCCMIHVYTTDEKIDPEIVYCNHLDVETKRCKIYKNRFNKEKECLSMLEAILTSALPKDCPYVKNYPSYEEPWFYGLLRGKNLK	failed
MAKPVYHAITKYSPKKPVIVFVPSRKQTRLTAIDILTTCAADIQRQRFLHCTEKDLIPYLEKLSDSTLKETLLNGVGYLHEGLSPMERRLVEQLFSSGAIQVVVASRSLCWGMNVAAHLVIIMDTQYYNGKIHAYVDYPIYDVLQMVGHANRPLQDDEGRCVIMCQGSKKDFFKKFLYEPLPVESHLDHCMHDHFNAEIVTKTIENKQDAVDYLTWTFLYRRMTQNPNYYNLQGISHRHLSDHLSELVEQTLSDLEQSKCISIEDEMDVAPLNLGMIAAYYYINYTTIELFSMSLNAKTKVRGLIEIISNAAEYENIPIRHHEDNLLRQLAQKVPHKLNNPKFNDPHVKTNLLLQAHLSRMQLSAELQSDTEEILSKAIRLIQACVDVLSSNGWLSPALAAMELAQMVTQAMWSKDSYLKQLPHFTSEHIKRCTDKGVESVFDIMEMEDEERNALLQLTDSQIADVARFCNRYPNIELSYEVVDKDSIRSGGPVVVLVQLEREEEVTGPVIAPLFPQKREEGWWVVIGDAKSNSLISIKRLTLQQKAKVKLDFVAPATGAHNYTLYFMSDAYMGCDQEYKFSVDVKEAETDSDSD	failed
MAKSLTFSTFSPNNTLKKNVIPIVLLHGWGLNSGVWQPLLELFHRNDESIYQLITIDLPGFGINSAVDIKPYSLANICHHIEQVIDQPAIYLGWSLGGLIATEMSLKYPEKVLASITVASSPYFVEQPTDNWPGIKENVLESFHKQLAQDTAKTISGFLKIQAMGSPHIRQDLKLITQLVMAHTLPSQQTLADSLALLSNSDLRLHLSKIKQPLLRLYGHNDSLVPKEVMEKISYLAPNSDQHLFADASHAPFISHLDDFYQVLVVWLDSHFNLEHHHHHH	failed
MAKSRLLLSELLDQLSFALCIVRNDYVIVKVNEYFESRVIFDGETMQGKNILELFPESADYLKRKIDTALVIESSSFSSWEQKPHLLPFKSSRPVSGEEEQMYQNLEVIPIHSED	failed
